Experiments:
[1] = molecular target: 5 A SSB escape mutant E201K (phage 5 A (T7-like podovirus)); test: native gel or EMSA; native stoichiometry of wild-type 5 A SSB and escape mutants in the absence of DNA; each protein allowed to oligomerize for 1 hour; non-denaturing 4-20% Tris-glycine gel, 4 °C; part of the wild-type sample melted at 95 °C for the monomeric state
[2] = molecular target: Hna with a C-terminal GFP tag; test: fluorescence anisotropy; settings: read off a plot
[3] = molecular target: Hna (helicase-nuclease abortive infection), wild type, Sinorhizobium meliloti (Sinorhizobium meliloti)
[4] = molecular target: Hna (helicase-nuclease abortive infection), wild type, Sinorhizobium meliloti; test: fluorescence anisotropy competition; settings: in the presence of ATP; cold SSB added to the saturated Hna/GFP-SSB heterodimer; value read at the highest cold SSB concentration (about 2e3 nM); lower …; parent: est. 75; read off a plot
[5] = molecular target: 5 A SSB escape mutant E38K (phage 5 A (T7-like podovirus)); test: native gel or EMSA; native stoichiometry of wild-type 5 A SSB and escape mutants in the absence of DNA; each protein allowed to oligomerize for 1 hour; non-denaturing 4-20% Tris-glycine gel, 4 °C; part of the wild-type sample melted at 95 °C for the monomeric state
[6] = molecular target: phage-encoded single-stranded DNA-binding protein of phage 5 A (5 A SSB), wild type (phage 5 A (T7-like podovirus)); test: as above
[7] = molecular target: 5 A SSB escape mutant E49A (phage 5 A (T7-like podovirus)); test: as above
[8] = saturating GFP-Hna homodimer, value read at the highest SSB concentration (about 2e4 nM), starting anisotropy about 100-110 mA, lower anisotropy = more …, parent: est. 22

5 A SSB escape mutant E201K (natural protein)
stoichiometry N [1]: 4

phage-encoded single-stranded DNA-binding protein of phage 5 A (5 A SSB), wild type E49A
response [2, 8]: 65 mA

Hna (helicase-nuclease abortive infection), wild type, Sinorhizobium meliloti T30A; D31A; P34A
response ([2]; +ATP, GFP-Hna at fixed concentration, value is the plateau of the fitted curve at high cold Hna concentration, parent: est. 98): 10 mA

Hna (helicase-nuclease abortive infection), wild type, Sinorhizobium meliloti (enzyme)
ssDNA cleavage rate of the Hna dimer mutant (T30A/D31A/P34A) compared to wild-type Hna, capillary electrophoresis [3]: > 10 fold

phage-encoded single-stranded DNA-binding protein of phage 5 A (5 A SSB), wild type E201K
response [4]: 130 mA
response [2, 8]: 110 mA

phage-encoded single-stranded DNA-binding protein of phage 5 A (5 A SSB), wild type E38K
response [2, 8]: 99 mA

5 A SSB escape mutant E38K (natural protein)
stoichiometry N [5]: 4

phage-encoded single-stranded DNA-binding protein of phage 5 A (5 A SSB), wild type (natural protein)
stoichiometry N [6]: 2

5 A SSB escape mutant E49A (natural protein)
stoichiometry N [7]: 2
